Sequences and labels used below:
B1: FLAG-tagged IRAK2 WT [mouse] / ALYREF [human (endogenous in IL1R-293 and HeLa)] (parent)
chain 1: MACYIYQLPSWVLDDLCRNIDTLSEWDWMQFASYVITDLTQLRKIKSMERVQGVSITRELLWWWSMRQATVQQLVDLLCHLELYRAAQIVLSWKPVPESTSPLPAFPEAVKPGAVATSRRNLKDEQEKVRPVKPRSLLDTGPIMAGAQRQRPCEMDAPCSLKTDAPDSPQSKYCSTSTSAPKQERLLGLPGDRLFWSEADVVQATEDFDQSHRISEGTFADIYQGQRNGVAFAFKKLREVAGSSPGSMDRFLQAEMQLCLRCCHANVLPLLGFCTGRQFHSLIYPYMANGSLHDRLWAQGNSDMLPWPQRASICSGLLLAVEHLHSLDIIHSNVKSANVLLDQHLNPKLAHPVAHPHPDNKKTKYTVMRTHLFQASAAYLPEHFIRVGQLTKQVDIFSCGIVLAEVLTGIPAMDKDRSPVYLKDLLLSEIPNSTSSVCSRKTSMGKAVVKEICQRHVEKRAGLLPEACEEAWATAVSVCLRRRNASVEEARVSLAGVEEQLRGQLSLPWSRVSEATGSSSNTPEETDDVDNSSLSVPSLVMMASCPGAASSPLFTGHGAAQPSTSGRQEADSSSEACTGPQTPQNATETSWKIEINEAKRRLMENIVLYKEERLDSSELFGP
chain 2: not shown

The test covers variants of B1. Put plainly: proximity ligation assay (PLA). Conditions: with ALYREF [human (endogenous in IL1R-293 and HeLa)]; Hela cells transfected; Mouse anti-ALYREF and Rabbit anti-FLAG antibody; read off a plot.
As for chain 1 K123R K182R K592R, the response (% PLA positive cells) stood at 0.45.
With chain 1 K235A K236A, the response (% PLA positive cells) was 0.2.
In the case of chain 1 K361A K362A K364A, the response (% PLA positive cells) is 0.6.

Values taken from paper PMC5675595.
